Article PMC5111876 (Microbial Drug Resistance, 2016)
Read-outs that look alike come from different tables or passages of the source.

What was measured:
[1] = target: the molecule itself; assay: SEC
[2] = target: the molecule itself; assay: SEC-MALS
[3] = target: the molecule itself; assay: SEC; remark: listed apart in the source
[4] = target: the molecule itself; assay: SEC-MALS; remark: listed apart in the source

B1: Bacillus subtilis GpsB T75D, full length (natural protein, B. subtilis, UniProt P0CI74 1-98, looked up)
chain: MLADKVKLSAKEILEKEFKTGVRGYKQEDVDKFLDMIIKDYETFHQEIEELQQENLQLKKQLEEASKKQPVQSNDTNFDILKRLSNLEKHVFGSKLYD
[1]
  binding result: binds

B2: Bacillus subtilis GpsB T75E, full length (natural protein, B. subtilis, UniProt P0CI74 1-98, looked up)
chain: MLADKVKLSAKEILEKEFKTGVRGYKQEDVDKFLDMIIKDYETFHQEIEELQQENLQLKKQLEEASKKQPVQSNETNFDILKRLSNLEKHVFGSKLYD
[1]
  binding result: binds

B3: Listeria monocytogenes GpsB, full-length wild type (natural protein, L. monocytogenes, UniProt Q8Y614 1-113, looked up)
chain: MTSEQFEYHLTGKEILEKEFKTGLRGYSPEDVDEFLDMVIKDYSTFTQEIEALQAENIRLVQELDNAPLRTSTQPAPTFQAAAQPAGTTNFDILKRLSNLEKHVFGNKLDDNE
[2]
  stoichiometry N: 6

B4: Listeria monocytogenes GpsB F91A, full length (natural protein, L. monocytogenes, UniProt Q8Y614 1-113, looked up)
chain: MTSEQFEYHLTGKEILEKEFKTGLRGYSPEDVDEFLDMVIKDYSTFTQEIEALQAENIRLVQELDNAPLRTSTQPAPTFQAAAQPAGTTNADILKRLSNLEKHVFGNKLDDNE
[3]
  binding result: binds

B5: Listeria monocytogenes GpsB F91A F105A double mutant, full length (natural protein, L. monocytogenes, UniProt Q8Y614 1-113, looked up)
chain: MTSEQFEYHLTGKEILEKEFKTGLRGYSPEDVDEFLDMVIKDYSTFTQEIEALQAENIRLVQELDNAPLRTSTQPAPTFQAAAQPAGTTNADILKRLSNLEKHVAGNKLDDNE
[4]
  stoichiometry N: 3
[2]
  stoichiometry N: 2
